Sequences and labels used below:
B1: … (peptide)
peptide: TLKAGTRANDGV
B2: GDAQILM (peptide)
peptide: GDAQILM
B3: AQRMNQA (peptide)
peptide: AQRMNQA
B4: … (peptide)
peptide: WSPANGWRHQTI
B5: … (peptide)
peptide: CHNADNNGC
B6: … (peptide)
peptide: AHAAGRDMRQGT
B7: … (peptide)
peptide: CQGWPRPMC
B8: … (peptide)
peptide: CLHNGQRSC
B9: … (peptide)
peptide: WQWRSTELGYRY
B10: … (peptide)
peptide: HPAWADFFTMSS
B11: … (peptide)
peptide: CSSQAKRSC
B12: LPMLRHS (peptide)
peptide: LPMLRHS
B13: … (peptide)
peptide: DSLYRGMHQPRI
B14: … (peptide)
peptide: VVPSWPSVHRPP
B15: … (peptide)
peptide: CQTSGHHQC
B16: … (peptide)
peptide: GPMLKNLSDAVT
B17: HSTYAPG (peptide)
peptide: HSTYAPG
B18: … (peptide)
peptide: CTWKHRDNC
B19: … (peptide)
peptide: QINWKQADKNAD
B20: … (peptide)
peptide: NDTGRHASGISK
B21: MTNSGAK (peptide)
peptide: MTNSGAK
B22: … (peptide)
peptide: GLLDWGSLQGGN
B23: … (peptide)
peptide: GGWQSLWDKPEH
B24: … (peptide)
peptide: CGETTAGKC
B25: … (peptide)
peptide: CTAWTRQEC
B26: … (peptide)
peptide: QGWEFQVPARHS
B27: … (peptide)
peptide: WGWNGANMSPRG
B28: … (peptide)
peptide: QGWKDRLPIWRY
B29: … (peptide)
peptide: QTFGYSMFNVRT
B30: … (peptide)
peptide: SLLSVVNTSSKS
B31: KASIAYD (peptide)
peptide: KASIAYD
B32: … (peptide)
peptide: SVESNSKLTMPR
B33: … (peptide)
peptide: DWTQVRVTNWFL
B34: … (peptide)
peptide: CKSERGPEC
B35: … (peptide)
peptide: SHDVANGTSVRT
B36: … (peptide)
peptide: NGHEVQSRAANR
B37: … (peptide)
peptide: FNSDSRSTHQED
B38: … (peptide)
peptide: SLNTTWVSPMMK
B39: … (peptide)
peptide: CTPRSATLC
B40: WPMMQTR (peptide)
peptide: WPMMQTR
B41: … (peptide)
peptide: CSRAGLSAC
B42: GSPEKRT (peptide)
peptide: GSPEKRT
B43: … (peptide)
peptide: EDRMMTYRYTST
B44: … (peptide)
peptide: EVERILTPHVNN
B45: … (peptide)
peptide: ALPWQSGVHGTK
B46: … (peptide)
peptide: LGYGQGTPHRSN
B47: … (peptide)
peptide: LGSSRSPSSFLG
B48: … (peptide)
peptide: ALKIGPETTIYM
B49: VPSYILR (peptide)
peptide: VPSYILR
B50: … (peptide)
peptide: EYVKFSHSPRTY
B51: … (peptide)
peptide: GHRTLVTSERYL
B52: … (peptide)
peptide: CNSWKAAKC
B53: … (peptide)
peptide: LGHQNGGRADMW
B54: WRSPLTT (peptide)
peptide: WRSPLTT
B55: … (peptide)
peptide: SPDRTNWGWQTN
B56: … (peptide)
peptide: RNLHYPLNHPFM
B57: … (peptide)
peptide: NWTHLGVARLQP
B58: … (peptide)
peptide: QALRTNYSPLNS
B59: … (peptide)
peptide: SYDGTMLKQVRL
B60: GPLLFRG (peptide)
peptide: GPLLFRG
B61: … (peptide)
peptide: LGPSTQGAGQTR
B62: … (peptide)
peptide: IDQSGLQKSGMK
B63: … (peptide)
peptide: DIMKSPRSNLRS
B64: IDLSLRS (peptide)
peptide: IDLSLRS
B65: … (peptide)
peptide: VYRNGGGLPLTA
B66: WAYTDYM (peptide)
peptide: WAYTDYM
B67: … (peptide)
peptide: DVIHSSRGAYFE
B68: … (peptide)
peptide: TFGSGRSMPIQY
B69: TAPRWTQ (peptide)
peptide: TAPRWTQ
B70: … (peptide)
peptide: NHDQGSLTRWRS
B71: … (peptide)
peptide: QTFHEYLNPARG

The target in this assay is Laminin 421/521. In words: phage display, NGS count.
In turn, B1 showed a Count of 32.
B2 came in with a Count of 38.
Under B3 stands 38; under B4, 36.
On to B5, for which the Count came out at 32.
In the case of B6 it was 36; in that of B7, 30.
The molecule B8 had a Count of 37.
As for B9, the Count stood at 36.
Under B10 stands 29; under B11, 31; under B12, 32.
In the case of B13, the Count worked out at 29.
In turn, B14 yielded a Count of 31.
In turn, B15 returned a Count of 31.
Under B16 stands 31.
Under B17 stands 33; under B18, 30.
As to B19, the Count was found to be 33.
Under B20 stands 32; under B21, 35.
The molecule B22 registered a Count of 30.
Consider B23, for which the Count is 31.
Under B24 stands 33; under B25, 31; under B26, 30.
Under B27 stands 31; under B28, 29; under B29, 30.
On to B30, for which the Count was determined as 31.
On to B31, for which the Count came out at 30.
Under B32 stands 29; under B33, 35.
In the case of B34 it was 30; in that of B35, 29; in that of B36, 29.
In the case of B37 it was 29.
In the case of B38, the Count stood at 37.
In the case of B39 it was 37; in that of B40, 29.
In the case of B41 it was 30; in that of B42, 30.
In the case of B43 it was 29; in that of B44, 29; in that of B45, 34.
The molecule B46 had a Count of 30.
Under B47 stands 29.
The molecule B48 had a Count of 35.
Under B49 stands 30.
In the case of B50 it was 31.
Under B51 stands 38; under B52, 29.
The molecule B53 came in with a Count of 35.
In the case of B54, the Count came out at 30.
Under B55 stands 29.
Molecule B56 had a Count of 30.
The molecule B57 returned a Count of 36.
Under B58 stands 32.
Under B59 stands 36; under B60, 30; under B61, 38.
In the case of B62 it was 29; in that of B63, 37; in that of B64, 29.
As to B65, the Count was determined as 34.
In the case of B66 it was 35; in that of B67, 36; in that of B68, 34.
Under B69 stands 30.
In the case of B70 it was 31.
Molecule B71 gave a Count of 37.

The values above are taken from patent US20240207421A1, “NERVE TARGETING PEPTIDES AND METHODS OF USE” (ALUME BIOSCIENCES, INC., priority 2020, published 2024).
